Patent US20200087373A1 (UNIVERSITY OF COPENHAGEN, published 2020)
Ends that are not written are not given here. * marks the point of attachment. Palmitoyl = CCCCCCCCCCCCCCCC(=O)*; Lauroyl = CCCCCCCCCCCC(=O)*

Tests used:
human GIP receptor [1] = target: T1, human GIP receptor (human, UniProt P48546 22-466); assay: cell-based or functional assay
T1 sequence (looked up): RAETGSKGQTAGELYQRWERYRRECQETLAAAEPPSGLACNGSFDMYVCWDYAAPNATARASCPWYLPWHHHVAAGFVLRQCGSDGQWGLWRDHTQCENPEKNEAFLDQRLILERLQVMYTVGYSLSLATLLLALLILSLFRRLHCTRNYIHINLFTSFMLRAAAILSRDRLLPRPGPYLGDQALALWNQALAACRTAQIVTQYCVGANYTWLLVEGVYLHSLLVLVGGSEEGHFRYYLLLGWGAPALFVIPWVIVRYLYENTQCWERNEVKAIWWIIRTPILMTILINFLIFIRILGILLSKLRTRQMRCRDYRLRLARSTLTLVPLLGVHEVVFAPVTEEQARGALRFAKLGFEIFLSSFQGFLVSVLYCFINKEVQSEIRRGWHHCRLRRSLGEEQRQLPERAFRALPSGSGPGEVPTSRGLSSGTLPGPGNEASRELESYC

human GIP receptor [2] = target: T2, human GIP receptor (human, UniProt P48546 22-466); assay: 125I-hGIP competition binding, COS-7 cells expressing hGIPR;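 note: nonspecific binding taken as radioligand bound by untransfected cells, binding buffer with or without 2% HSA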
T2 construct: whole, on cells; also called hGIPR
T2 sequence (looked up): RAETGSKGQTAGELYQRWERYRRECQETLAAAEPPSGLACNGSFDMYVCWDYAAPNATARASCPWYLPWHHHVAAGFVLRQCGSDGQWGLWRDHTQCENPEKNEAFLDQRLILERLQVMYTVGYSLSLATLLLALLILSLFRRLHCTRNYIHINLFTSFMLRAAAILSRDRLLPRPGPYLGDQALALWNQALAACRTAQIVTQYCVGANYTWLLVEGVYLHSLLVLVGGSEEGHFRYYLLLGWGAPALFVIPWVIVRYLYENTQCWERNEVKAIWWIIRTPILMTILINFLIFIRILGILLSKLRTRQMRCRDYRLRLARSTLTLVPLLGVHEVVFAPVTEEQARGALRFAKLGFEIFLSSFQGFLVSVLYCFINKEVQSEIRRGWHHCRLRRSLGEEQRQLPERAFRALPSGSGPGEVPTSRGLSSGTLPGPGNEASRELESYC
Method: After incubation, the cells were washed twice in ice-cold binding buffer (+/−2% HSA) and lysed using 200 mM NaOH with 1% SDS for 30 min. Nonspecific binding was determined as the binding of radioactive ligand to untransfected cells.

Binder	cAMP agonism, EC50 (log) (human GIP receptor [1]) [log M]	cAMP agonism, Emax (human GIP receptor [1]) [%]	cAMP agonism, nM (EC50) (human GIP receptor [1]) [nM]	IC50 (human GIP receptor [2]) [nM]	log IC50 (human GIP receptor [2]) [log M]	cAMP antagonism, log (IC50) (human GIP receptor [1]) [log M]	cAMP antagonism, nM (IC50) (human GIP receptor [1]) [nM]
Lauroyl-EGTFISDYSIAMDKIHQQDFVNWLLAQK-NH2 [AT101 [hGIP(3-30)NH2-C12/3], listing 1 of 2 here]	-9.1	62	0.7				
EGTFISDYSIAMDK(Lauroyl)IHQQDFVNWLLAQK-NH2 [AT102 [hGIP(3-30)NH2-C12/16]]	-9.1	66	0.7				
Lauroyl-EGTFISDYSIAMDKIHQQDFVNWLLAQK-NH2 [AT101 [hGIP(3-30)NH2-C12/3], listing 2 of 2 here]				9.9	-8		
EGTFISDYSIALDKIK(Palmitoyl)QQDFVNWLLAQK-NH2 (N-terminus assumed; SMILES CCCCCCCCCCCCCCCC(=O)NCCCC[C@H](NC(=O)[C@@H](NC(=O)[C@H](CCCCN)NC(=O)[C@H](CC(=O)O)NC(=O)[C@H](CC(C)C)NC(=O)[C@H](C)NC(=O)[C@@H](NC(=O)[C@H](CO)NC(=O)[C@H](Cc1ccc(O)cc1)NC(=O)[C@H](CC(=O)O)NC(=O)[C@H](CO)NC(=O)[C@@H](NC(=O)[C@H](Cc1ccccc1)NC(=O)[C@@H](NC(=O)CNC(=O)[C@@H](N)CCC(=O)O)[C@@H](C)O)[C@@H](C)CC)[C@@H](C)CC)[C@@H](C)CC)C(=O)N[C@@H](CCC(N)=O)C(=O)N[C@@H](CCC(N)=O)C(=O)N[C@@H](CC(=O)O)C(=O)N[C@@H](Cc1ccccc1)C(=O)N[C@H](C(=O)N[C@@H](CC(N)=O)C(=O)N[C@@H](Cc1c[nH]c2ccccc12)C(=O)N[C@@H](CC(C)C)C(=O)N[C@@H](CC(C)C)C(=O)N[C@@H](C)C(=O)N[C@@H](CCC(N)=O)C(=O)N[C@@H](CCCCN)C(N)=O)C(C)C) [AT143 [hGIP(3-30)NH2[M14L; H18K]-C16/18]]				80			
EGWFISDYSIAMEK(Palmitoyl)IAQQDFVNWLLAQK-NH2 (N-terminus assumed; SMILES CCCCCCCCCCCCCCCC(=O)NCCCC[C@H](NC(=O)[C@H](CCC(=O)O)NC(=O)[C@H](CCSC)NC(=O)[C@H](C)NC(=O)[C@@H](NC(=O)[C@H](CO)NC(=O)[C@H](Cc1ccc(O)cc1)NC(=O)[C@H](CC(=O)O)NC(=O)[C@H](CO)NC(=O)[C@@H](NC(=O)[C@H](Cc1ccccc1)NC(=O)[C@H](Cc1c[nH]c2ccccc12)NC(=O)CNC(=O)[C@@H](N)CCC(=O)O)[C@@H](C)CC)[C@@H](C)CC)C(=O)N[C@H](C(=O)N[C@@H](C)C(=O)N[C@@H](CCC(N)=O)C(=O)N[C@@H](CCC(N)=O)C(=O)N[C@@H](CC(=O)O)C(=O)N[C@@H](Cc1ccccc1)C(=O)N[C@H](C(=O)N[C@@H](CC(N)=O)C(=O)N[C@@H](Cc1c[nH]c2ccccc12)C(=O)N[C@@H](CC(C)C)C(=O)N[C@@H](CC(C)C)C(=O)N[C@@H](C)C(=O)N[C@@H](CCC(N)=O)C(=O)N[C@@H](CCCCN)C(N)=O)C(C)C)[C@@H](C)CC) [AT107 [hGIP(3-30)NH2[T5W; D15E; H18A]-C16/16]]				5220	-5.3		
EGTFISDYSIAMEK(Palmitoyl)IAQQDFVNWLLAQK-NH2 (N-terminus assumed; SMILES CCCCCCCCCCCCCCCC(=O)NCCCC[C@H](NC(=O)[C@H](CCC(=O)O)NC(=O)[C@H](CCSC)NC(=O)[C@H](C)NC(=O)[C@@H](NC(=O)[C@H](CO)NC(=O)[C@H](Cc1ccc(O)cc1)NC(=O)[C@H](CC(=O)O)NC(=O)[C@H](CO)NC(=O)[C@@H](NC(=O)[C@H](Cc1ccccc1)NC(=O)[C@@H](NC(=O)CNC(=O)[C@@H](N)CCC(=O)O)[C@@H](C)O)[C@@H](C)CC)[C@@H](C)CC)C(=O)N[C@H](C(=O)N[C@@H](C)C(=O)N[C@@H](CCC(N)=O)C(=O)N[C@@H](CCC(N)=O)C(=O)N[C@@H](CC(=O)O)C(=O)N[C@@H](Cc1ccccc1)C(=O)N[C@H](C(=O)N[C@@H](CC(N)=O)C(=O)N[C@@H](Cc1c[nH]c2ccccc12)C(=O)N[C@@H](CC(C)C)C(=O)N[C@@H](CC(C)C)C(=O)N[C@@H](C)C(=O)N[C@@H](CCC(N)=O)C(=O)N[C@@H](CCCCN)C(N)=O)C(C)C)[C@@H](C)CC) [AT131 [hGIP(3-30)NH2[D15E; H18A]-C16/16]]				6510	-5.2		
EGTFISDYSIAMEKIAQQDFVNWLLAQK(C12 fatty acyl)-NH2 [AT130 [hGIP(3-30)NH2[D15E; H18A]-C12/30]]				1210	-5.9		
TFISDYSIAMDKIK(Palmitoyl)QQDFVNWLLAQK-NH2 (N-terminus assumed; SMILES CCCCCCCCCCCCCCCC(=O)NCCCC[C@H](NC(=O)[C@@H](NC(=O)[C@H](CCCCN)NC(=O)[C@H](CC(=O)O)NC(=O)[C@H](CCSC)NC(=O)[C@H](C)NC(=O)[C@@H](NC(=O)[C@H](CO)NC(=O)[C@H](Cc1ccc(O)cc1)NC(=O)[C@H](CC(=O)O)NC(=O)[C@H](CO)NC(=O)[C@@H](NC(=O)[C@H](Cc1ccccc1)NC(=O)[C@@H](N)[C@@H](C)O)[C@@H](C)CC)[C@@H](C)CC)[C@@H](C)CC)C(=O)N[C@@H](CCC(N)=O)C(=O)N[C@@H](CCC(N)=O)C(=O)N[C@@H](CC(=O)O)C(=O)N[C@@H](Cc1ccccc1)C(=O)N[C@H](C(=O)N[C@@H](CC(N)=O)C(=O)N[C@@H](Cc1c[nH]c2ccccc12)C(=O)N[C@@H](CC(C)C)C(=O)N[C@@H](CC(C)C)C(=O)N[C@@H](C)C(=O)N[C@@H](CCC(N)=O)C(=O)N[C@@H](CCCCN)C(N)=O)C(C)C) [AT145 [hGIP(5-30)NH2[H18K]-C16/18], listing 1 of 2 here]				155	-6.8		
Palmitoyl-TFISDYSIAMDRIHQQDFVNWLLAQR-NH2 (SMILES CCCCCCCCCCCCCCCC(=O)N[C@H](C(=O)N[C@@H](Cc1ccccc1)C(=O)N[C@H](C(=O)N[C@@H](CO)C(=O)N[C@@H](CC(=O)O)C(=O)N[C@@H](Cc1ccc(O)cc1)C(=O)N[C@@H](CO)C(=O)N[C@H](C(=O)N[C@@H](C)C(=O)N[C@@H](CCSC)C(=O)N[C@@H](CC(=O)O)C(=O)N[C@@H](CCCNC(=N)N)C(=O)N[C@H](C(=O)N[C@@H](Cc1c[nH]cn1)C(=O)N[C@@H](CCC(N)=O)C(=O)N[C@@H](CCC(N)=O)C(=O)N[C@@H](CC(=O)O)C(=O)N[C@@H](Cc1ccccc1)C(=O)N[C@H](C(=O)N[C@@H](CC(N)=O)C(=O)N[C@@H](Cc1c[nH]c2ccccc12)C(=O)N[C@@H](CC(C)C)C(=O)N[C@@H](CC(C)C)C(=O)N[C@@H](C)C(=O)N[C@@H](CCC(N)=O)C(=O)N[C@@H](CCCNC(=N)N)C(N)=O)C(C)C)[C@@H](C)CC)[C@@H](C)CC)[C@@H](C)CC)[C@@H](C)O) [AT135 [hGIP(5-30)NH2[K16R; K30R]-C16/5]]		0					
TFISDYSIAMDKIK(Palmitoyl)QQDFVNWLLAQK-NH2 (N-terminus assumed; SMILES CCCCCCCCCCCCCCCC(=O)NCCCC[C@H](NC(=O)[C@@H](NC(=O)[C@H](CCCCN)NC(=O)[C@H](CC(=O)O)NC(=O)[C@H](CCSC)NC(=O)[C@H](C)NC(=O)[C@@H](NC(=O)[C@H](CO)NC(=O)[C@H](Cc1ccc(O)cc1)NC(=O)[C@H](CC(=O)O)NC(=O)[C@H](CO)NC(=O)[C@@H](NC(=O)[C@H](Cc1ccccc1)NC(=O)[C@@H](N)[C@@H](C)O)[C@@H](C)CC)[C@@H](C)CC)[C@@H](C)CC)C(=O)N[C@@H](CCC(N)=O)C(=O)N[C@@H](CCC(N)=O)C(=O)N[C@@H](CC(=O)O)C(=O)N[C@@H](Cc1ccccc1)C(=O)N[C@H](C(=O)N[C@@H](CC(N)=O)C(=O)N[C@@H](Cc1c[nH]c2ccccc12)C(=O)N[C@@H](CC(C)C)C(=O)N[C@@H](CC(C)C)C(=O)N[C@@H](C)C(=O)N[C@@H](CCC(N)=O)C(=O)N[C@@H](CCCCN)C(N)=O)C(C)C) [AT145 [hGIP(5-30)NH2[H18K]-C16/18], listing 2 of 2 here]	-7	16	33			-7.2	66
Palmitoyl-EGTFISDYSIAMDKIHQQDFVNWLLAQK-NH2 [AT104 [hGIP(3-30)NH2-C16/3]]	-8.6	81	2.4				
EGTFISDYSIAMDKIHQQDFVNWLLAQK-NH2 [hGIP(3-30)NH2]						-7.2	65
EGTFISDYSIAMDKIHQQDFVNWLLAQK(Lauroyl)-NH2 [AT103 [hGIP(3-30)NH2-C12/30]]	-5.3	7	4880			-6.9	121
